{
  "source": "patent US8409836B2",
  "about": "“Treatment of cellulosic material and enzymes useful therein” (Roal Oy, priority 2005, dated 2013)",
  "experiment": "Isoelectric focusing (PhastSystem), pI of purified protein",
  "format": "physicochemical",
  "details": "IEF gel",
  "protocol": "The sample was dissolved in water and applied to a Superdex 75 HR 10/30 gel filtration column equilibrated with 20 mM sodium phosphate pH 6.0, containing 0.15 M NaCl. Fractions were collected and those containing endoglucanase activity were combined. The protein eluate was judged to be pure by SDS-polyacrylamide gel electrophoresis and the molecular mass was evaluated on the basis of molecular mass standards (prestained SDS-PAGE standards, Broad Range, Bio-Rad) to be 54 kDa. The pI of the purified protein, designated as Ct EG—54 was determined with PhastSystem (Pharmacia) to be ca 5.5.\nThe sample was applied to a Sephacryl S-100 HR 26/60 gel filtration column equilibrated with 50 mM sodium acetate buffer pH 5.0, containing 0.05 M NaCl. The protein fraction containing endoglucanase activity was eluted from the column with a retention volume corresponding to a molecular weight of 16 kDa. Collected fractions were combined, concentrated and gel filtration was repeated. The protein eluate was judged to be pure by SDS-polyacryl amide gel electrophoresis and the molecular weight was evaluated to be 28 kDa. The pI of the purified protein, designated as Ta EG—28, was determined in an IEF gel (PhastSystem, Pharmacia) to be about 3.5. The specific activity of Ta EG—28 at 50° C. was determined to be 4290 nkat/mg (procedure of IUPAC 1987, using CMC as substrate).\nThe active material from the anion exchange chromatography was applied to a Sephacryl S-300 HR 26/60 column equilibrated with 20 mM sodium phosphate pH 6.5, containing 0.15 M NaCl. The protein with β-glucosidase activity was eluted with a retention volume corresponding to a molecular weight of 243 kDa. The protein was judged to be pure by SDS-polyacrylamide gel electrophoresis and the molecular weight was evaluated to be 101 kDa. The pI of the purified protein, designated as At βG—101, was determined in an IEF gel (PhastSystem, Pharmacia) to be in the area of 5.6-4.9. The specific activity of At βG—101 at 50° C. was determined to be 1100 nkat/mg (using 4-nitrophenyl-β-D-glucopyranoside as substrate, Bailey and Linko, 1990).\nThe active material from the cation exchange chromatography was applied to a Sephacryl S-300 HR 26/60 column equilibrated with 20 mM sodium phosphate pH 7.0, containing 0.15 M NaCl. The protein with β-glucosidase activity was eluted with a retention volume corresponding to a molecular weight of 294 kDa. […] The protein was judged to be pure by SDS-polyacrylamide gel electrophoresis and the molecular weight was evaluated to be 81 kDa, representing most likely the monomeric form of the protein. […] The specific activity of the purified protein, designated as Ta βG—81, at 50° C. was determined to be 600 nkat/mg using 4-nitrophenyl-β-D-glucopyranoside as substrate (Bailey and Linko, 1990). […]",
  "data": [
    {"molecule": "Ta EG_28: endoglucanase of Thermoascus aurantiacus ALKO4242, gene Ta cel5A, amino acid SEQ ID NO: 10 (protein) MKLGSLVLALSAARLTLSAPLADRKQETKRAKVFQWFGSNESGAEFGSQNLPGVEGKDYIWPDPNTIDTLISKGMNIFRVPFMMERLVPNSMTGSPDPNYLADLIATVNAITQKGAYAVVDPHNYGRYYNSIISSPSDFQTFWKTVASQFASNPLVIFDTNNEYHDMDQTLVLNLNQAAIDGIRSAGATSQYIFVEGNSWTGAWTWTNVNDNMKSLTDPSDKIIYEMHQYLDSDGSGTSATCVSSTIGQERITSATQWLRANGKKGIIGEFAGGANDVCETAITGMLDYMAQNTDVWTGAIWWAAGPWWGDYIFSMEPDNGIAYQQILPILTPYL", "values": [
      {"measurement": "pI of the purified protein", "result": "about 3.5"}
    ]}
  ]
}
